Residue numbers refer to the chain shown, from its start. Names and notes keep the numbering of the source. Each block holds one binder with its values, some of them ahead of it.
Key:
Conditions in all cases: both partners purified
[1] = biological target: T1, dna2-D657A (nuclease-dead Dna2) (S. cerevisiae, UniProt P38859 1-1522, D657A); test: native gel or EMSA; ternary complex of dna2-D657A variants (20 nM), Rfa1 truncations or mutants (20 nM) and 5 nM dT(20) ssDNA; 150 mM KCl, 30 °C, 4% native gel
T1 construct: Dna2, Saccharomyces cerevisiae, nuclease-dead version; Purified as the other Dna2 variants; FLAG tag used for quantum-dot labelling in DNA Curtains; also called dna2-D657A mutant; source: over-expressed in yeast, purified (Ni-NTA, anti-FLAG-M2 resin)

[2] = biological target: T2, RPA–Y193A–GFP (RPA complex harboring rfa1–Y193A) (yeast (S. cerevisiae), UniProt P22336 1-621; P26754 1-273; P26755 1-122, Y193A); test: single-molecule DNA Curtains (TIRF microscopy); quantum-dot labelled Dna2 variants on ssDNA coated with RPA–GFP variants; NaCl concentration of these results not told in the text (conditions in Supplementary Table 1)
T2 construct: Rfa1, large subunit of yeast RPA, with Y193A in the linker between Rfa1-N and DBD-A; Rfa2, middle subunit of yeast RPA; Rfa3, small subunit of yeast RPA; GFP is fused to one subunit and kept in the assay; preparation not described; also called RPA complex harboring rfa1–Y193A mutant; copies: + +

RPA–GFP = biological target: T3, RPA–GFP (yeast (S. cerevisiae), UniProt P22336 1-621; P26754 1-273; P26755 1-122); test: as above
T3 construct: Rfa1, large subunit of yeast RPA; Rfa2, middle subunit of yeast RPA; Rfa3, small subunit of yeast RPA; GFP is fused to one subunit and kept in the assay (it is imaged); Coats the ssDNA of the DNA Curtains; also called RPA (green) on ssDNA; copies: + +
T3 sequence (P26754 whole entry, chain 2 of 2, the tested form may be a part): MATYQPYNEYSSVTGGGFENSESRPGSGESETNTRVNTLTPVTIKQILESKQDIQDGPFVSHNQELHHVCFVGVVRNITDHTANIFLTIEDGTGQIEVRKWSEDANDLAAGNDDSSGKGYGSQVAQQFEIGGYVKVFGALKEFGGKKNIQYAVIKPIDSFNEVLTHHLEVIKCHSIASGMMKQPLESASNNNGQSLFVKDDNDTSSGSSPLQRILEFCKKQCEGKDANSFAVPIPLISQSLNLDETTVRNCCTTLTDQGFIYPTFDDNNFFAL
T3 sequence (P26755 whole entry, chain 3 of 2, the tested form may be a part): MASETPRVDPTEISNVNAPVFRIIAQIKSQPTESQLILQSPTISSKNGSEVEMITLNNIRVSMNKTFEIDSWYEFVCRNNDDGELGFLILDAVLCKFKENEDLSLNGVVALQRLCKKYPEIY

B1: Rfa1-N-DBD-A/B (Rfa1–NAB, amino acid 1–435) (domain or fragment, yeast (S. cerevisiae), UniProt P22336 1-435, looked up)
chain: MSSVQLSRGDFHSIFTNKQRYDNPTGGVYQVYNTRKSDGANSNRKNLIMISDGIYHMKALLRNQAASKFQSMELQRGDIIRVIIAEPAIVRERKKYVLLVDDFELVQSRADMVNQTSTFLDNYFSEHPNETLKDEDITDSGNVANQTNASNAGVPDMLHSNSNLNANERKFANENPNSQKTRPIFAIEQLSPYQNVWTIKARVSYKGEIKTWHNQRGDGKLFNVNFLDTSGEIRATAFNDFATKFNEILQEGKVYYVSKAKLQPAKPQFTNLTHPYELNLDRDTVIEECFDESNVPKTHFNFIKLDAIQNQEVNSNVDVLGIIQTINPHFELTSRAGKKFDRRDITIVDDSGFSISVGLWNQQALDFNLPEGSVAAIKGVRVTDFGGKSLSMGFSSTLIPNPEIPEAYALKGWYDSKGRNANFITLKQEPGMGGQ
notes: Rfa1 of yeast RPA, residues 1-435 (N, DBD-A and DBD-B domains); The 6xHis tag can optionally be removed by TEV protease; also called NAB polypeptide; pHis–Rfa1 1–435; source: E. coli BL21 codon plus, purified (Ni-NTA, Superdex 200)
binding result [1]: binds

B3: Dna2 (wild type, FLAG-His6-tagged) (enzyme, S. cerevisiae, UniProt P38859 1-1522, looked up)
chain: MPGTPQKNKRSASISVSPAKKTEEKEIIQNDSKAILSKQTKRKKKYAFAPINNLNGKNTKVSNASVLKSIAVSQVRNTSRTKDINKAVSKSVKQLPNSQVKPKREMSNLSRHHDFTQDEDGPMEEVIWKYSPLQRDMSDKTTSAAEYSDDYEDVQNPSSTPIVPNRLKTVLSFTNIQVPNADVNQLIQENGNEQVRPKPAEISTRESLRNIDDILDDIEGDLTIKPTITKFSDLPSSPIKAPNVEKKAEVNAEEVDKMDSTGDSNDGDDSLIDILTQKYVEKRKSESQITIQGNTNQKSGAQESCGKNDNTKSRGEIEDHENVDNQAKTGNAFYENEEDSNCQRIKKNEKIEYNSSDEFSDDSLIELLNETQTQVEPNTIEQDLDKVEKMVSDDLRIATDSTLSAYALRAKSGAPRDGVVRLVIVSLRSVELPKIGTQKILECIDGKGEQSSVVVRHPWVYLEFEVGDVIHIIEGKNIENKRLLSDDKNPKTQLANDNLLVLNPDVLFSATSVGSSVGCLRRSILQMQFQDPRGEPSLVMTLGNIVHELLQDSIKYKLSHNKISMEIIIQKLDSLLETYSFSIIICNEEIQYVKELVMKEHAENILYFVNKFVSKSNYGCYTSISGTRRTQPISISNVIDIEENIWSPIYGLKGFLDATVEANVENNKKHIVPLEVKTGKSRSVSYEVQGLIYTLLLNDRYEIPIEFFLLYFTRDKNMTKFPSVLHSIKHILMSRNRMSMNFKHQLQEVFGQAQSRFELPPLLRDSSCDSCFIKESCMVLNKLLEDGTPEESGLVEGEFEILTNHLSQNLANYKEFFTKYNDLITKEESSITCVNKELFLLDGSTRESRSGRCLSGLVVSEVVEHEKTEGAYIYCFSRRRNDNNSQSMLSSQIAANDFVIISDEEGHFCLCQGRVQFINPAKIGISVKRKLLNNRLLDKEKGVTTIQSVVESELEQSSLIATQNLVTYRIDKNDIQQSLSLARFNLLSLFLPAVSPGVDIVDERSKLCRKTKRSDGGNEILRSLLVDNRAPKFRDANDDPVIPYKLSKDTTLNLNQKEAIDKVMRAEDYALILGMPGTGKTTVIAEIIKILVSEGKRVLLTSYTHSAVDNILIKLRNTNISIMRLGMKHKVHPDTQKYVPNYASVKSYNDYLSKINSTSVVATTCLGINDILFTLNEKDFDYVILDEASQISMPVALGPLRYGNRFIMVGDHYQLPPLVKNDAARLGGLEESLFKTFCEKHPESVAELTLQYRMCGDIVTLSNFLIYDNKLKCGNNEVFAQSLELPMPEALSRYRNESANSKQWLEDILEPTRKVVFLNYDNCPDIIEQSEKDNITNHGEAELTLQCVEGMLLSGVPCEDIGVMTLYRAQLRLLKKIFNKNVYDGLEILTADQFQGRDKKCIIISMVRRNSQLNGGALLKELRRVNVAMTRAKSKLIIIGSKSTIGSVPEIKSFVNLLEERNWVYTMCKDALYKYKFPDRSNAIDEARKGCGKRTGAKPITSKSKFVSDKPIIKEILQEYES
notes: Dna2 nuclease-helicase, Saccharomyces cerevisiae, wild type; Wild-type protein; In DNA Curtains it was labelled with anti-FLAG quantum dots; in MST with the His-tag labelling kit RED-tris-NTA; also called wild-type Dna2; (His)6-tagged Dna2; source: over-expressed in yeast, purified (Ni-NTA, anti-FLAG-M2 resin)
recruitment relative to wild-type RPA [2]: 80%

More lines, now with the values ahead:

binding result [1]: binds
B2: rfa1–NAB–K45E (pHis-Rfa1 1-435 K45E) (domain or fragment, yeast (S. cerevisiae), UniProt P22336 1-435, looked up)
chain: B1 chain with K45E
notes: Rfa1 of yeast RPA, residues 1-435, charge reversal in the basic cleft of Rfa1-N; also called rfa1–t11; rfa1–K45E; source: E. coli BL21 codon plus, purified (Ni-NTA, Superdex 200)

fold less recruitment than wild-type Dna2 (RPA–GFP): ~2 fold
B4: dna2-AC (dna2-D357A,E358A,D361A,D362A,E366A), FLAG-His6-tagged (enzyme, S. cerevisiae, UniProt P38859 1-1522, looked up)
chain: B3 chain with D357A, E358A, D361A, D362A, E366A
notes: Dna2, Saccharomyces cerevisiae, with all acidic residues of the second acidic patch (amino acid 355-366) changed to alanine; source: over-expressed in yeast, purified (Ni-NTA, anti-FLAG-M2 resin)

Source: article PMC8766458, “Deciphering the mechanism of processive ssDNA digestion by the Dna2-RPA ensemble” (Nature Communications, 2022)
